The source of these data is patent US20260174880.

This series addresses cytosolically localized BRD4 (lacks NLS), O60885.

B1: BTK-FLAG (Bruton's Tyrosine Kinase, FLAG-tagged, expressed in HEK293T cells and treated with BTK-BRD4 PHICS) (protein)
chain: MAAVILESIFLKRSQQKKKTSPLNFKKRLFLLTVHKLSYYEYDFERGRRGSKKGSIDVEKITCVETVVPEKNPPPERQIPRRGEESSEMEQISIIERFPYPFQVVYDEGPLYVFSPTEELRKRWIHQLKNVIRYNSDLVQKYHPCFWIDGQYLCCSQTAKNAMGCQILENRNGSLKPGSSHRKTKKPLPPTPEEDQILKKPLPPEPAAAPVSTSELKKVVALYDYMPMNANDLQLRKGDEYFILEESNLPWWRARDKNGQEGYIPSNYVTEAEDSIEMYEWYSKHMTRSQAEQLLKQEGKEGGFIVRDSSKAGKYTVSVFAKSTGDPQGVIRHYVVCSTPQSQYYLAEKHLFSTIPELINYHQHNSAGLISRLKYPVSQQNKNAPSTAGLGYGSWEIDPKDLTFLKELGTGQFGVVKYGKWRGQYDVAIKMIKEGSMSEDEFIEEAKVMMNLSHEKLVQLYGVCTKQRPIFIITEYMANGCLLNYLREMRHRFQTQQLLEMCKDVCEAMEYLESKQFLHRDLAARNCLVNDQGVVKVSDFGLSRYVLDDEYTSSVGSKFPVRWSPPEVLMYSKFSSKSDIWAFGVLMWEIYSLGKMPYERFTNSETAEHIAQGLRLYRPHLASEKVYTIMYSCWHEKADERPTFKILLSNILDVMDEES
As to B1, the “BRD4 phosphorylation (pBRD4 immunoblot) [panel B]” value is “clear pBRD4 band in lane PHICS; no visible band in lanes DMSO and iPHICS; total BRD4 alike in all lanes”; the “BRD4 phosphorylation (pBRD4 immunoblot) [panel C]” value is “strongest pBRD4 band in lane PHICS; weak bands in lanes DMSO and iPHICS; total BRD4 alike in all lanes”; the “BRD4 phosphorylation (pBRD4 immunoblot) [panel F]” value is “clear pBRD4 band in lane 5; barely visible signal in lanes DMSO and 6; total BRD4 alike in all lanes”; the “BRD4 phosphorylation (pBRD4 immunoblot) [panel G]” value was “clear pBRD4 band in lane 7; no visible band in lanes DMSO and 8; total BRD4 alike in all lanes”.
